pKd: −log10 of the molar value.
Key:
[1] = target: cynomolgus monkey (cyno) GITR (cynomolgus monkey)
[2] = target: cynomolgus monkey (cyno) GITR (cynomolgus monkey); remark: listed apart in the source

MEDI1873 (Fc fusion) gave a Jurkat NFκB reporter gene assay with cyno GITR-transfected cells, EC50 [1] of 0.000422 µM and a pKd [2] of 6.97.
